Results: the DeepSol protein solubility set

Experiment: soluble on expression in E. coli; label from the status in PepcDB or PDB records

| Sequence | soluble on expression in E. coli |
| --- | --- |
| MSLNSEAFTGNAAQRFLFSSSDGTKIVSIADRGHLRWCHSTSTTYKSLDFDLQFEGKVEGAVSSTTADYVCIYNRDELHVLEVPWMYSGEENGLKHLCHIYSHKFDENHSIKQVLFHPKSYLDSTILVLTNDDSIFMINTDDNRSDKNMINLNSKNSALGLYDRINDIQKIIFSQDGLSLLILSAEEGCDIFTIYPCLPRRWDISLHEVDTLFAKSLLLYNNMNVNTTPQEKRNIVKQLNFMEKIRGQKTAFRNDKKPLILEDAYLNAQPQGPFSMTPYPNELYDFMATDINIIQITQNISLLAIAFSNGTVLLFLSDLEPIMSWDISRFPGSNSLALLEQIKLEITDNAKFLSIPGTYGKFVVTDNVKSNFFVNTCDWSTILAQIIDDSDIKLLANLKVKSNIENLQQLATTFKSIIYWKNENISCNYIISDKKIEELDEGHHHHHH | soluble |
| MAHHHHHHMLMFCRVPEDTAVRISLDVKKHFVNTERTSITQAELENYIRCSMIAAGFAQEHAQLFSVVTQFHAERIPLVLFLAGPERCGKTTLAHLLAARINCSTVINAEVLRDISASIDDSLPLFAVPETSSPDSTPSMLRGAEVSAVVAAEVDKAVREGRAIIVEGENLSFAGFHRFLEPSFQLSTGAVILGLVMEICGGEAETDASHAYVQALPNLHPVYSTERLTVLAADIGDLAKGVRGIPTVYVARYTTVADNVCLSVFLHDIVVKRIIAELKRRGRVL | not soluble |
| MSSCVNTSQTGPKKKISFIIRDEHEYSNRSAVSALQYDAQNGRLFTGGSDTIIRTWSVPHHKDAFSARGGVRSPGKNSPVQYQGSLEQHTDWVNDMILCGHGKILISASNDTTVKVWNIERDNKHGFIDCIRTHKDYVSCLAYAPIVEKAVSASFDHNIFVYDINANFKTVNNLIGCKDSIYSLATTPNLSLVLGAGTEKCIRLFDPRTNEKIMKLRGHTDNVRALVVNDDGTRALSAGSDATIRLWDIGQQRCIATCIAHEEGVWTLQVDSSFTTVYSAGKDKMVVKTPLYDFTKSQLLFKEEAPVKKLLLSEKDNPVSLWVGTWKSDIKRWSIRPSAQLSIGGDEDGPSTSNANHSVSASSSPPVTFKYIRVKDQKGQQSTPELVIPGAPAIKKHAMLSDKRHVLTRDSDGNVALYDVLAARKIKDYGKRIFEEVVDENSRQVYIPSWFVVDSKSGMLQITLDELDALSSWLSSKDAGFDDNDRETKLNYGGMMLRSLFERWPPCKMTNVDAADADDVQKATLNFISLPEHTPLIICEGNGRPLYRLLVGDAGKEFEANELAQIAPMWVIDAIERNQLPKFNKMPFYLLPHPSTNPKQPKKDRLSATEMLQVKKVMEHVYEKILSTNDDITVGSIPLNQIHTKMEMYCNDQRLEPDMDLRTVKHLYWKQSGELLLHYKPVK | not soluble |
| GMSDLQSLQPKLLWQWFDQICAIPHPSYKEEQLAQFIINWAKTKGFFAERDEVGNVLIRKPATVGMENRKPVVLQAHLDMVPQANEGTNHNFDQDPILPYIDGDWVKAKGTTLGADNGIGMASALAVLESNDIAHPELEVLLTMTEERGMEGAIGLRPNWLRSEILINTDTEENGEIYIGCAGGENADLELPIEYQVNNFEHCYQVVLKGLRGGHSGVDIHTGRANAIKVLLRFLAELQQNQPHFDFTLANIRGGSIRNAIPRESVATLVFNGDITVLQSAVQKFADVIKAELALTEPNLIFTLEKVEKPQQVFSSQCTKNIIHCLNVLPNGVVRNSDVIENVVETSLSIGVLKTEDNFVRSTMLVRSLIESGKSYVASLLKSLASLAQGNINLSGDYPGWEPQSHSDILDLTKTIYAQVLGTDPEIKVIHAGLECGLLKKIYPTIDMVSIGPTIRNAHSPDEKVHIPAVETYWKVLTGILAHIPSR | soluble |
| MPELPEVETVRRELEKRIVGQKIISIEATYPRMVLTGFEQLKKELTGKTIQGISRRGKYLIFEIGDDFRLISHLRMEGKYRLATLDAPREKHDHLTMKFADGQLIYADVRKFGTWELISTDQVLPYFLKKKIGPEPTYEDFDEKLFREKLRKSTKKIKPYLLEQTLVAGLGNIYVDEVLWLAKIHPEKETNQLIESSIHLLHDSIIEILQKAIKLGGSSIRTYSALGSTGKMQNELQVYGKTGEKCSRCGAEIQKIKVAGRGTHFCPVCQQK | soluble |
| MVQNIPIYIQIHDKIKEDIEKGVWSIGDRLPSERELALKFDVSRMTLRQAIQTLADEGILERKIGSGTYVARKKVQETMTGTTSFTEITLSQNRVPSSRTVSYFVAKPSSSEMEKLQLGPEDSILRMERIRFADDIPICFEVASIPYSLVSQYGKSEITNSFYKTLEAKSGHKIGHSNQTISAVQASEQIAEYLEIKRGDAILRVRQVSYFENGLPFEYVRTQYAGSRFEFYLEK | not soluble |
| MGNILIVKLSRRELSYLLSVKKYNDEGKPAKLSWISKDLNVSVASAYEEISHLESKGFLKKSDKGIFITDEGKKAIDSLLRAHRVIETFLVKIGLSPDQACNYTKQFDYSVPDEVIERIYEYLGKPEKCPHGENIPY | soluble |
| MSLEVIKHDGPGRLGVIRLEPPVQTPALAGVDFTLSPFNSFFYPKDYKEYDFNLAPAIPLSYYTPDEIIKKAVKRLWEVDYSKFNAFYFPALKRTKHYEELFKIIEENDFDAIYIGNSKSMIKDYRGFVFTMRELREKFPNAVLITDLEPFFYPLAVYLGIDAFDIRSLKIYSYEGLGFTQFSPIIWDEPKEDPVEYAKKIIRLIRIAIHEGKLRYLVENFLPTSMNAGILRIADRENIEYLEKYTPVDDKTVVFISDYSMTRPEVYRWAKRVRERFEPPKDIELLLILPCSAKKPYSRSRSHTLYRSAVKEALGEKMHRVHELIVTSPYGVVPREWEWIAKYDIVVTGHWSEREVRLAGELLADVLEKYPDIPIIAHVEGGYREAVKLAMELSGRDVIFTAKGNSTTSRESLANLTKTLKEFDVRDVDKEYRRYRFYENIRKIFDFYFGLNAGYAVLPERAQVVGSKMLRLIVDNQQTGTFQEGVISVTPWGMQRIYDELHSYWVEIDFDVRGDIFAAGVGSADEKIRPNDWVGVVRDGKVVAVGRAVLSGEEMVKAKRGVAVKVKKKAKEGHHHHHH | soluble |
| MVAAAAATGILSLCGSPALADSHADGAATNSPGAVSGNALQVPVDVPVNACGNTVDVIAALNPAFGNECENASDEKTDGHGGGYGEDASSSSSSSTSASSSGSHADGATEGSPGVGSGNNAQVPVDVPVNLCGNTVDVIAALNPVFGNKCENDAEEPPGYGEEEPPPPTTPPGYGEEEPPPPTHEEPPPPSGEEEPPPPSEEEHTPPAPQTEQPPALAETGSEGTLGAAAAGAVLIAGGAILYRRGRALSGRLEHHHHHH | not soluble |
| MASSNLIKQLQERGLVAQVTDEEALAERLAQGPIALYCGFDPTADSLHLGHLVPLLCLKRFQQAGHKPVALVGGATGLIGDPSFKAAERKLNTEETVQEWVDKIRKQVAPFLDFDCGENSAIAANNYDWFGNMNVLTFLRDIGKHFSVNQMINKEAVKQRLNREDQGISFTEFSYNLLQGYDFACLNKQYGVVLQIGGSDQWGNITSGIDLTRRLHQNQVFGLTVPLITKADGTKFGKTEGGAVWLDPKKTSPYKFYQFWINTADADVYRFLKFFTFMSIEEINALEEEDKNSGKAPRAQYVLAEQVTRLVHGEEGLQAAKRITECLFSGSLSALSEADFEQLAQDGVPMVEMEKGADLMQALVDSELQPSRGQARKTIASNAITINGEKQSDPEYFFKEEDRLFGRFTLLRRGKKNYCLICWK | soluble |
| METYAVFGNPIAHSKSPFIHQQFAQQLNIEHPYGRVLAPINDFINTLNAFFSAGGKGANVTVPFKEEAFARADELTERAALAGAVNTLMRLEDGRLLGDNTDGVGLLSDLERLSFIRPGLRILLIGAGGASRGVLLPLLSLDCAVTITNRTVSRAEELAKLFAHTGSIQALSMDELEGHEFDLIINATSSGISGDIPAIPSSLIHPGIYCYDMFYQKGKTPFLAWCEQRGSKRNADGLGMLVAQAAHAFLLWHGVLPDVEPVIKQLQEELSALEHHHHHH | soluble |
| MTNGFPILRLPSKPLRSILQTMKFVELVSISFTSKVAKRHVKALNMKVSYINMFLSRLTIRLVVNFNGTLPLNFRIPDRNVSEPRKLNKKLNYMKVKEGPIFEETEVFEWKPSGIRFKEIANHVLEIFHKSEFSTLMISHDYDYKTMLQELKDFKIRKLCISSDRIQNSELRRNLLEKYSRQFRELALDYHSLKPQEFHLIVSISYNNCYLYKVPMKLEDLLVSNIFLMCIDKPCPLKQLCLFLKHWINGSNDRLEYLEMNLPANSTKTQFISIALNGIDYQLASTDKEWESANNGLIKTTVVKTGGFDIRQNDGTIATVTVDETFQKLRMFVWK | not soluble |
| MATAVKLSGISKTFGSLKANDNVSLSIEAGSIHALVGENGAGKSTLSNIIYGLLHPDSGTIEIDGKAVKFSSVRQAIEAGIGMVHQHFMLVPTLSVTENIILGKEESRLALPTRRIGKEIRQLSQQHGLEVDPDALVSTLSVGEQQRVEILKLLYRRAKLLILDEPTAVLSPPETARLFATLRSLAAEGRTVLLITHKLDEVLTVSDSVSVMRKGSLVGTVPTTSTSKEDLARMMVGRDVLLRTANAPQTPGKTVLSIDKLTYRSPLGIDKLTGLTLHVRAGEIYGIAGVEGNGQSELLSLLWGTFDRSGKTGGSITIDAQETLGKNPSEIAALGVSMIPEDRHKSAIIAEYGIEENLILGRHREKAFHRGIGFDRDAVHKNATAMIEQYDIRCAAGTNPPIASLSGGNQQKIVVAREMERPQLKLLVLAQPTRGVDIGAIEQIHKRIIDARKSGLAILLISSELEEIVALSTRIGCLYKGAIRHEFSETEVWRGRDHESGFEKEIGMHITLEHHHHHH | soluble |
| MSLEPDELFDIEMRLLLHGVRQVYGHDFTDYSEASIKRRITQWFATSGYGTLSEAQAAILRNREAFDSLLRGITVNVSEMFRDPAFFRALREEIVPHLKTYPFVKIWHAGCSSGEEAYSLAILLEEEGMKGRFRMYATDINNEVLQNAREGIFPLKEMQKYTRNYQAAGGKGAFSDYYLARYEHAIMIQSLRDQIVFASHNLAVDADFGEMHLILCRNVLIYFKPTLKERVLRLFDTCLIPGGFLCLGLKESLDGRRIASRYAETVERMRIYRKSYGQEQSEGHHHHHH | not soluble |
| MTDRLIIQGGKKLSGTLQVDGAKNSAVALIPAAILAESEVVLEGLPDISDVYTLYDILEELGGSVRYDNKTAIIDPTDMLSMPLPSGNVKKLRASYYLMGAMLGRFKKAVIGLPGGCYLGPRPIDQHIKGFEALGAKVTNEQGAIYLRADELKGARIYLDVVSVGATINIMLAAVRAKGKTVIENAAKEPEIIDVATLLTNMGAIIKGAGTDTIRITGVDHLHGCHHTIIPDRIEAGTFMVLAAASGKGIRIENVIPTHLEGIIAKLTEMGVPMDIEEDSIFIGEVENIKKVDIKTYAYPGFPTDLQQPLTALLTRAEGSSVITDTIYPSRFKHIAELERMGGKFKLEGRSAVISGPAKLQGSKVTATDLRAGAALVIAGLLAEGRTEIHGVEHIERGYSKIIEKLSAIGADITRSSTAETNI | not soluble |
| PEITGQVSLPPGKRTNLRKTGSERIAHGMRVKFNPLPLALLLDSSLEGEFDLVQRIIYEVDDPSLPNDEGITALHNAVCAGHTEIVKFLVQFGVNVNAADSDGWTPLHCAASCNNVQVCKFLVESGAAVFAMTYSDMQTAADKCEEMEEGYTQCSQFLYGVQEKMGIMNKGVIYALWDYEPQNDDELPMKEGDCMTIIHREDEDEIEWWWARLNDKEGYVPRNLLGLYPRIKPRQRSLA | soluble |
| MSPENPFLNHEKKEQERQAKRDAVLLAAVKIFNEQGFHSTSLDDVAKSLGISKPTIYHYLGNKEQVLLTCVEIGLQQLIEAAKDVEKQSISGFEKLRRFLFLYGCRNLDDFGRCVILTHDDALSKEGLVKFKALKRVVHEALLNIIRDAQLDQSINAEHDPKILAATLTGAINWSAKWYNPNGVLSKEETIQKMVDILTYGFEKK | not soluble |
